Common to all, as to assay: enzyme inhibition kinetics
The target in assay [1] is T1, ADAMTS4-2 (human ADAMTS-4 deletion mutant, C-terminal FLAG-tag) (human, UniProt O75173 213-685).
T1 sequence (looked up): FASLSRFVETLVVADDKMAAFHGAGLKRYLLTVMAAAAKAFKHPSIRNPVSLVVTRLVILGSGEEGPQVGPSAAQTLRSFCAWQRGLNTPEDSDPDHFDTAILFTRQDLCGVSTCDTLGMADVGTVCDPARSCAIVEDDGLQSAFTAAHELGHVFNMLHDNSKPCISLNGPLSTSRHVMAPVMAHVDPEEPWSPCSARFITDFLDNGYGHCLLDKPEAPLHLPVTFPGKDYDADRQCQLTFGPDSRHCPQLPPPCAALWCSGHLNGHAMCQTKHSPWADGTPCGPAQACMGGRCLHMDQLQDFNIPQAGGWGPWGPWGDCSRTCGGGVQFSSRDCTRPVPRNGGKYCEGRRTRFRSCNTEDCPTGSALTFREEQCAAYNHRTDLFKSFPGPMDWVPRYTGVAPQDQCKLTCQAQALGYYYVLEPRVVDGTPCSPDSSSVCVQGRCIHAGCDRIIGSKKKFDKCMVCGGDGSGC

For assay [2], the target named is T2, ADAMTS5-2 (human ADAMTS-5 deletion mutant, C-terminal FLAG-tag) (human, UniProt Q9UNA0 262-874).
T2 sequence (looked up): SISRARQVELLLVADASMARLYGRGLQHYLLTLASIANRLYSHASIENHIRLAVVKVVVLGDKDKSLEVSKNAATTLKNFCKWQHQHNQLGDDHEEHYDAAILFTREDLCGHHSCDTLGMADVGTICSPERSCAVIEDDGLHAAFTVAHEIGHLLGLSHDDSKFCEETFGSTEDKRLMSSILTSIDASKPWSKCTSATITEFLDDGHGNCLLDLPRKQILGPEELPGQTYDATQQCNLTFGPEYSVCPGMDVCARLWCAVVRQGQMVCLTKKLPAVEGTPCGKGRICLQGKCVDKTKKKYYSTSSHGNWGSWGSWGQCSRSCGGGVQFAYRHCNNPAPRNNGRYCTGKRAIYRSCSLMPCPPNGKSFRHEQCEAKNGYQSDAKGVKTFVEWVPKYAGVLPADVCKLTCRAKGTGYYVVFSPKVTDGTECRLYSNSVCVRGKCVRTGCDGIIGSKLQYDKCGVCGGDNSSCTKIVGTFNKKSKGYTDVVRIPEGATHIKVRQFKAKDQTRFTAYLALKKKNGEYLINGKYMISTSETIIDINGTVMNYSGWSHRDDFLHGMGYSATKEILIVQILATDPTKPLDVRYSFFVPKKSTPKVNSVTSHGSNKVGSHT

For assay [3], the target named is Catalytic domain of human MMP-3 (MMP-3cat) (human, UniProt P08254 100-272).
Catalytic domain of human MMP-3 (MMP-3cat), sequence (P08254 100-272): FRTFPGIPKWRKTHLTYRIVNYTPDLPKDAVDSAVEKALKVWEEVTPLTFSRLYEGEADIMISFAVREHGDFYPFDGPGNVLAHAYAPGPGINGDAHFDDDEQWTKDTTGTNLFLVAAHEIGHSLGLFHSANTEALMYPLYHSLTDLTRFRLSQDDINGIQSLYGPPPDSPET
For assay [4], the target named is T3, Catalytic domain of human MMP-1 (MMP-1cat) (human, UniProt P03956 100-269).
T3 sequence (looked up): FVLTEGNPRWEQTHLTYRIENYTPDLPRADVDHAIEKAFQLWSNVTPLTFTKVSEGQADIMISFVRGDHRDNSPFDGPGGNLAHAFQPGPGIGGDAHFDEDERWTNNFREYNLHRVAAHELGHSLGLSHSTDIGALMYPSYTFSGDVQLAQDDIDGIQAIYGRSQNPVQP

B1: Non-glycosylated full-length human TIMP-3, FLAG-tagged, from HEK293 cells treated with tunicamycin (natural protein, UniProt P35625 24-211, looked up)
chain: CTCSPSHPQDAFCNSDIVIRAKVVGKKLVKEGPFGTLVYTIKQMKMYRGFTKMPHVQYIHTEASESLCGLKLEVNKYQYLLTGRVYDGKMYTGLCNFVERWDQLTLSQRKGLNYRYHLGCNCKIKSCYYLPCFVTSKNECLWTDMLSNFGYPGYQSKHYACIRQKGGYCSWYRGWAPPDKSIINATDP
With B1, the Ki in assay [1] is 0.2 nM; in assay [2] it was 1.37 nM.

B2: N-terminal domain of human TIMP-3 with C-terminal His-tag, expressed in Escherichia coli and folded in vitro (domain or fragment, UniProt P35625 24-144, looked up)
chain: CTCSPSHPQDAFCNSDIVIRAKVVGKKLVKEGPFGTLVYTIKQMKMYRGFTKMPHVQYIHTEASESLCGLKLEVNKYQYLLTGRVYDGKMYTGLCNFVERWDQLTLSQRKGLNYRYHLGCN
B2: the inhibitory constant (Ki) in assay [1] is 0.79 nM; in assay [3], 11.1 nM; in assay [4] it was 0.8 nM; in assay [2] it was 0.32 nM.

For the origin of these results see article PMC2835468 (Matrix biology : journal of the International Society for …, 2009).
